Target: Arabidopsis thaliana plant cysteine oxidase 5 (Arabidopsis thaliana) (UniProt Q9LXT4)
UniProt Q9LXT4, sequence (Q9LXT4 whole entry): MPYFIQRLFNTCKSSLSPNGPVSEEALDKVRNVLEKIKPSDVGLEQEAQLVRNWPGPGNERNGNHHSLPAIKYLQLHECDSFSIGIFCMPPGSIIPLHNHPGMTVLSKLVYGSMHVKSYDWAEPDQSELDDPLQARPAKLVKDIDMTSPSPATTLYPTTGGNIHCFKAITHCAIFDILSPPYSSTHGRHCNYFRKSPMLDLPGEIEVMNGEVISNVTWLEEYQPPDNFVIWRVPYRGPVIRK

A Km for AtRAP2(2–15); initial rates of N-terminal cysteine oxidation by LC-MS, Michaelis–Menten fit with substrate inhibition, atmospheric O2, pH 8.0, 25 °C of 0.16 mM was found for “AtRAP2(2–15), 14-amino acid peptide corresponding to the methionine excised N terminus of AtRAP2.2 and AtRAP2.12” in this work.
